{"source": "the nanobody polyreactivity screen of Harvey et al. (2022)"}
{"assay": "yeast display, Sf9 membrane polyspecificity reagent, FACS + sequencing; frameworks hold sequencing errors", "summary_of_the_method": "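In a synthetic yeast display library (Saccharomyces cerevisiae BJ5465), nanobody expression was induced with galactose for 36–48 hours. FACS gates were set low and high (top ~1%) using anti-HA fluorescence for expression and streptavidin fluorescence for binding of the Sf9 membrane reagent. Each polyreactivity label is drawn from the gate of origin.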"}
{"sequence": "QVQLVESGGGLVQAGGRLRLSCAASGRIFFRNTMGWYRQEPGKERQLVAAISGSGGSKYYADSVKGRFTISRDNAKNTVYLQMNSLKPEDTAVYYCAKRWLYPISYDYWGQGTQVTVSS", "polyreactivity (PSR sort gate)": "high polyreactivity"}
{"sequence": "QVQLVESGGGLVQAGGSLRLSCAASGRTFGSYAMGWYRQAPGKERELVAAITWSGGITYFADSVKGRFTISRDNAKNTVYLKMNSLKPEDTAVYYCNVYVSAGEEDEYWGQGTQVTVSS", "polyreactivity (PSR sort gate)": "low polyreactivity"}
{"sequence": "QVQLVESGGGIVEAGVSLRISCAASGSIFTKNAMVWYRPAPGKARELVAAISSGGSTYYADSEKGRFSISRDNAKNTVYLQMNSLKPEDTAVYYCARGASFYLKFYYWGQGTQVTVSS", "polyreactivity (PSR sort gate)": "high polyreactivity"}
{"sequence": "QVQLVESGGGLVQAGGSLRLSCAASGYTFGYNAMGWYRQAPGKERELVATISSGGTTTYADSVKGRFTISRDNAKNTVYLQMNSLKPEDTAVYYCNVYDYPTYDYWGQGTQVTVSS", "polyreactivity (PSR sort gate)": "low polyreactivity"}
{"sequence": "QVQLVESGGGLVQAGGSLRLSCAASALTFFYYAMGWYRQAPGKERELVAAISWSGGRTYYADSVKGRFTISRDNAKNTVYLQMNSLKPEDTAVYYCSADYITAHSSYSTYGYWGQGTQVTVSS", "polyreactivity (PSR sort gate)": "low polyreactivity"}
{"sequence": "QVQLVESGGGLVQAGGSLRLSCASSGFTFYYYAMGWYRQAPGKEMELVAAIDTSDGSTYYADSVKGRFTISRDNAKNTVYLQMNSLKPEDTAVYYCAAEVDWVPFLLDYWGQGTQVTVSS", "polyreactivity (PSR sort gate)": "low polyreactivity"}
{"sequence": "QVQLVESGGGIVQAGGSLRLSCAASGIIIFYKAMGWDRQAPGKERELVATISRRGGSTYYADSVKGRFTISRDNAKNTVYLQMNSLKPEDTAVYYCARDVGAGSKISRLSSYNYWGQGTQVTVSS", "polyreactivity (PSR sort gate)": "low polyreactivity"}
{"sequence": "QVQLVESGGGLVQAGGSLRLSCAASGSIFITYAMGWYRQAPGKERELVAAIRDSGDRTYYADSVKGRFTISRDNAKNTVYLQMNSLKPEDTAVYYCTARCQEPLKYDYSGQGTQVTVSS", "polyreactivity (PSR sort gate)": "low polyreactivity"}
{"sequence": "QVPLVESGGGLVQAGGSLRLSCAASGSTLGRYAMGWYRQAPGKERELVASITWSDDSTYYADSEKGRFTISRDNAKNTVYLQMNSLKPEDTAVYYCAAAGNLYTYRFYYWGQGTQVTLSS", "polyreactivity (PSR sort gate)": "low polyreactivity"}
{"sequence": "QVQLVESGGGLVQAGGSLRLSCAASGITFASYAMGWYRQAPGKERELVAAISRTGGSTYYADSVKGRFTISRDNAKNTVYLQMNSLKPEDTAVYYCAARIPYTGYDYWGQGTQVTVSS", "polyreactivity (PSR sort gate)": "high polyreactivity"}
{"sequence": "QVQLVESGGGLVQAGGRLRLSCAASGSTFVYNAMGWYRPAPGKERELVAAISRSGGRTYYADSVKGRFTISRDNAKNSVYLQMNSLKPEDTAVYYCAVLLRGIEYDYWGQGTQVTVSS", "polyreactivity (PSR sort gate)": "high polyreactivity"}
{"sequence": "QVQLVESGGGLVQAGGSLRLSCAASGSIFDWYDMGWYRQAPGKEGELVAAISSGDSTYYADSVKGRFTISRDNAKNTVYLQMNSLKPEDTAVYYCAAVTKLSGIRYNYWGQGTQVTVSS", "polyreactivity (PSR sort gate)": "low polyreactivity"}
{"sequence": "QVQLVESGGGLVQAGGSLRLSCAASGFIFYANAMGWYRQAPGKERELVAAITWSGSRTYYADSVKGRFTISRDNAKNTVYLQMNSLKPEDTAVYYCNKDWYVGSFGYPEDYWGQGTQVSVSS", "polyreactivity (PSR sort gate)": "low polyreactivity"}
{"sequence": "QVQLVESGGGLVQAGGSLRLSCAASGRTFPYYAMGWYRQAPGKERELVAAISSSGGSTYYADSVKGRFTISRDNAKNTVYLQMNSLKPEDTAVYYCAATRGWLHSFARDDHDYWGQGTQVTVSS", "polyreactivity (PSR sort gate)": "high polyreactivity"}
{"sequence": "QVQLEESGGGLVQAGGSLRLSCAATGSLFYTYSMGWYRQAPGKERELGASIRSDGITNYADSVKGRFTISRDNAKNTVYLQMNSLKPEDTAVYYCAARIIWSTNYYYWSGYNSWGQGTQVTVSS", "polyreactivity (PSR sort gate)": "high polyreactivity"}
{"sequence": "QVQLVESGGGLVQAGGSLRLSCAASGSTFRTYAMGWYRQAPGKERELVATITRTGGSTYYADSVKGRFTISRDNAKNTVYLQMNSLKPEDTAVYYCAARRSHQYRGPHFNYWGQGTLVTVSS", "polyreactivity (PSR sort gate)": "low polyreactivity"}
{"sequence": "QVHLVESGGGLVQAGGILRLSCAASGSIFLYYAMGWYRQAPGKERELVAAITGGGGTNYADSVKGRFTISRDNAKNTFYLQMNSLKPEDTAVYYCGADPSGQFPYSYYNYDYDYWGQGTQVTVSS", "polyreactivity (PSR sort gate)": "low polyreactivity"}
{"sequence": "QVQLQVSGGGLVQAGGSLRLSCAASGSIFLTSEMGWYRQAPCKERELVAANATGTSTNYADSVKGRFTISRDNAKNTVYLQMKSLKPEDTSVYYCAAGTQAHAFVVRPIEMDYWGQGTQVTVSS", "polyreactivity (PSR sort gate)": "low polyreactivity"}
{"sequence": "QVQLVESGGGLVQAGGSLRLSCAASGSNFQFNAMGWYRQAPGKEREFVAAITSSAGRTYYADSVKGRFTISRDNAKNTVYLQMNSLKPEDSAVYYCGDTFYRRYVDLGYWGQGTQVTVSS", "polyreactivity (PSR sort gate)": "high polyreactivity"}
{"sequence": "QVQLVESGGGLVQAGGSLRLSCAASGITFEIYAMGWYRQAPGKERELVAAITWRGGSTYYADSVKGRFTISRDNAKNTVYLQMNSLKPDDTAVYYCAAEQYSGEDWGDYWGQGTQVTVSS", "polyreactivity (PSR sort gate)": "low polyreactivity"}
{"sequence": "PVQLVESGGGLVQAGGSLLLSCAASGRIFSRNAMGWNIQAPGKERELVAAISRSGTSTYYADSVKGRFTSSRDNAKNTVYLQMNSLKPEETAVYYCAADYPAVISIRRYDYWGQGTQLTVSS", "polyreactivity (PSR sort gate)": "low polyreactivity"}
{"sequence": "QVQLVESGGGLVQAGGSLRLSCAASGFIFESNAMGWYRQAPGKERELVAAISKRGGSTYYADSVKGRFTISRDNAKNTVYLQMNSLKPEDTAVYYCNKARGYYHPGYQYGLDYWGQGTQVTVSS", "polyreactivity (PSR sort gate)": "high polyreactivity"}
{"sequence": "QVQLVESGGGLVQAGGSLRLSCAASGRIFREYAMGWYRQAPGKERELVAAISSGASTYADSVKGRFTISRDNAKNTVYLQMNSLKPEDTAVYYCAKDIKLGPVGHSKYHRYDYWGQGTQVTVSS", "polyreactivity (PSR sort gate)": "low polyreactivity"}
{"sequence": "QVQHVESGGGLVKAGGSLRLSCAATGSIFSPYAMGWYILAPGKERELVAAISRSGRTHYADSVKGRFTISRDNAKHTVYLQMNSLKADDTAVYFCAAGVVYGYYYWGQGTQVTVSS", "polyreactivity (PSR sort gate)": "high polyreactivity"}
{"sequence": "QVQLVESGGGLVQAGGSLRLSCASSGRIFGLYAMGWYRQAPGKERELVAAITLSGDGTDYADSVKGRFTISRDNAKNTVYLQMNSLKPEDTAVYYCAKVGQYWWNMDYWGQGTQVTVSS", "polyreactivity (PSR sort gate)": "low polyreactivity"}
{"sequence": "QVQLVESGGGLVQAGGSLLLSCAASGSTFSFYAMGWYRQAPGKERELVAAIDSGGRTKYADSVKGRFTISRDNAKNTVYLQMNSLKPEDTAVYYCAAVFRGLWLYDYWGQGTQVTVSS", "polyreactivity (PSR sort gate)": "low polyreactivity"}
{"sequence": "QVQLVESGGGLDQAGGSLRLSCAASGRIFTAYAMGWYRQAHGKERELVAAISSGDSTYYADSVKGRFTISRDNAKNTVYLQMNSLKPEDTAVYYCATGVYPDFEYDSWGQGTQVTVSS", "polyreactivity (PSR sort gate)": "low polyreactivity"}
{"sequence": "QVQLVESGGGLVQAGGSLRISCAASGRTFGINAMGWYRQAPGKERELVAAISSSGSTYYADSVKGRFTISRDNAKNTVYLQMNSLKPEDTAVYYCAAVAKQWGNTYYYWGQGTQVTVSS", "polyreactivity (PSR sort gate)": "high polyreactivity"}
{"sequence": "QVQLVESGGGLVQAGGSLRLSCAASGFTFYSYAMGWYRQAPGKERELVATISRNGGTTRYADSVKGRFTISRDNAKNTVYLQMNSLKPEDTAVYYCNAVYYAYSRHSYAMDYWGQGTQVTVSS", "polyreactivity (PSR sort gate)": "high polyreactivity"}
{"sequence": "QVQLVESGAGLVQAGGSRRLSCAASVLIFAWYAMGWSRQAPGNERELVAAITGTGSSTYYADSVKGRFTISRDNAKNTVYLLLNSLKPDDTAVYYCAPTSLPRYYYWGQGTQVTVSS", "polyreactivity (PSR sort gate)": "low polyreactivity"}
